For one experiment, the target named is T1, (NANP)6 peptide (Plasmodium falciparum CSP repeat, …).
T1 construct: printed as (NANP)6, written out here; a short segment of the antigenic NANP-repeat region of P. falciparum CSP; also called synthetic peptide antigen (NANP)6; source: synthetic peptide
T1 chain: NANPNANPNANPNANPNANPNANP
Description: ITC; 25°C; titration of 2A10 FAB or complete 2A10 with antigen; independent binding sites model; single titration each. To be noted: both partners purified.

Another experiment has as its target T2, (NANP)9 peptide (Plasmodium falciparum CSP repeat, …).
T2 construct: printed as (NANP)9, written out here; NANP repeat of P. falciparum CSP
T2 chain: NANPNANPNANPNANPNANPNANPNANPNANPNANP
Description: ELISA; recombinant 2A10, germline precursor, hybrids and their point mutants tested on the (NANP)9 peptide; details in S1 Methods.

The values below come from paper PMC5552345 (PLoS Pathogens, 2017).

B1: 2A10 antigen-binding fragment (FAB) (Fab, V domains shown)
VH: QIQLVQSGPELKKPGETVKISCKASGYTFTNYGINWVKQAPGKGLKWMGWINTITEEPTFAEEFTGRFAFSLETSASTAYLQINNLKNEDTATYFCARGSEFGRLVYWGQGASVTVSS
VL: DIQMTQTTSSLSASLGDRVTISCSASQGISNYLNWYQQKPDGTVKLLIFYTSTLYSGVPSRFSGSGSGTDYSLTISNLEPEDIATYYCQQYSRFPYVFGGGTKLEIK
notes: heavy chain part of the 2A10 FAB; as the heavy chain of m1; light chain of the 2A10 FAB; as the light chain of m1; also called 2A10 FAB; 2A10 FAB fragment; source: purified
Turning to B1, in the experiment with (NANP)6 peptide, the Ka was 2.37e+06 M⁻¹, binding was put at a Kd of 420 nM, the dH was -113 kJ/mol complex and the “stoichiometry N” value worked out at 2.16 FAB per Ag.

B2: hybrid antibody mLC + gHC with heavy chain T67F (antibody, V domains shown)
VH: QIQLVQSGPELKKPGETVKISCKASGYTFTNYGMNWVKQAPGKGLKWMGWINTNTGEPTFAEEFKGRFAFSLETSASTAYLQINNLKNEDTATYFCARGSEFGRLDYWGQGASVTVSS
VL: DIQMTQTTSSLSASLGDRVTISCSASQGISNYLNWYQQKPDGTVKLLIFYTSTLYSGVPSRFSGSGSGTDYSLTISNLEPEDIATYYCQQYSRFPYVFGGGTKLEIK
notes: as the heavy chain of m17 (gHC); as the light chain of m7; source: HEK293T cells, expressed
Consider B2, for which, in the experiment with (NANP)9 peptide, the binding result is reported as “binds”.

B3: 2A10 gAb with light chain H68Y (antibody, V domains shown)
VH: QIQLVQSGPELKKPGETVKISCKASGYTFTNYGMNWVKQAPGKGLKWMGWINTNTGEPTYAEEFKGRFAFSLETSASTAYLQINNLKNEDTATYFCARGSEFGRLDYWGQGASVTVSS
VL: DIQMTQTTSSLSASLGDRVTISCSASQGISNYLNWYQQKPDGTVKLLIYYTSSLYSGVPSRFSGSGSGTDYSLTISNLEPEDIATYYCQQYSKLPYTFGGGTKLEIK
notes: as the heavy chain of m17 (gHC); as the light chain of m17 (gLC); source: HEK293T cells, expressed
B3: the binding result with (NANP)9 peptide is reported as “binds”.

B4: recombinant antibody corresponding to the 2A10 mAb (antibody, V domains shown)
VH: QIQLVQSGPELKKPGETVKISCKASGYTFTNYGINWVKQAPGKGLKWMGWINTITEEPTFAEEFTGRFAFSLETSASTAYLQINNLKNEDTATYFCARGSEFGRLVYWGQGASVTVSS
VL: DIQMTQTTSSLSASLGDRVTISCSASQGISNYLNWYQQKPDGTVKLLIFYTSTLYSGVPSRFSGSGSGTDYSLTISNLEPEDIATYYCQQYSRFPYVFGGGTKLEIK
notes: 2A10 heavy chain (mHC), as the heavy chain of m1; FAB part in the deposited structures; 2A10 light chain (mLC), as the light chain of m1; in the deposited structures; also called mHC + mLC; source: HEK293T cells, expressed
Consider B4, for which the binding result with (NANP)9 peptide was “binds”.

B5: 2A10 gAb with light chain L114F and T117V (antibody, V domains shown)
VH: QIQLVQSGPELKKPGETVKISCKASGYTFTNYGMNWVKQAPGKGLKWMGWINTNTGEPTYAEEFKGRFAFSLETSASTAYLQINNLKNEDTATYFCARGSEFGRLDYWGQGASVTVSS
VL: DIQMTQTTSSLSASLGDRVTISCSASQGISNYLNWYQQKPDGTVKLLIYYTSSLHSGVPSRFSGSGSGTDYSLTISNLEPEDIATYYCQQYSKFPYVFGGGTKLEIK
notes: as the heavy chain of m17 (gHC); as the light chain of m17 (gLC); also called L114F and T117V introduced simultaneously; source: HEK293T cells, expressed
Regarding B5, the binding result with (NANP)9 peptide was “binds”.

B6: 2A10 gAb with light chain L114F (antibody, V domains shown)
VH: QIQLVQSGPELKKPGETVKISCKASGYTFTNYGMNWVKQAPGKGLKWMGWINTNTGEPTYAEEFKGRFAFSLETSASTAYLQINNLKNEDTATYFCARGSEFGRLDYWGQGASVTVSS
VL: DIQMTQTTSSLSASLGDRVTISCSASQGISNYLNWYQQKPDGTVKLLIYYTSSLHSGVPSRFSGSGSGTDYSLTISNLEPEDIATYYCQQYSKFPYTFGGGTKLEIK
notes: as for B3
On to B6, for which the binding result with (NANP)9 peptide is “binds”.

B7: predicted germline precursor to the 2A10 antibody (2A10 gAb) (antibody, V domains shown)
VH: QIQLVQSGPELKKPGETVKISCKASGYTFTNYGMNWVKQAPGKGLKWMGWINTNTGEPTYAEEFKGRFAFSLETSASTAYLQINNLKNEDTATYFCARGSEFGRLDYWGQGASVTVSS
VL: DIQMTQTTSSLSASLGDRVTISCSASQGISNYLNWYQQKPDGTVKLLIYYTSSLHSGVPSRFSGSGSGTDYSLTISNLEPEDIATYYCQQYSKLPYTFGGGTKLEIK
notes: predicted germline heavy chain (gHC) of 2A10 by V-quest; the 2A10 heavy chain carries 6 mutations against it; predicted germline light chain (gLC) of 2A10 by V-quest; the 2A10 light chain carries 7 mutations against it; also called gHC + gLC; source: HEK293T cells, expressed
In the case of B7, the binding result in the experiment with (NANP)9 peptide was “binds”.

B8: hybrid antibody: 2A10 light chain (mLC) paired with germline heavy chain (gHC) (antibody, V domains shown)
VH: QIQLVQSGPELKKPGETVKISCKASGYTFTNYGMNWVKQAPGKGLKWMGWINTNTGEPTYAEEFKGRFAFSLETSASTAYLQINNLKNEDTATYFCARGSEFGRLDYWGQGASVTVSS
VL: DIQMTQTTSSLSASLGDRVTISCSASQGISNYLNWYQQKPDGTVKLLIFYTSTLYSGVPSRFSGSGSGTDYSLTISNLEPEDIATYYCQQYSRFPYVFGGGTKLEIK
notes: as the heavy chain of m17 (gHC); as the light chain of m7; also called mLC + gHC; source: HEK293T cells, expressed
With B8, in the experiment with (NANP)9 peptide, the binding result is recorded as “binds”.

B9: 2A10 gAb with light chain T117V (antibody, V domains shown)
VH: QIQLVQSGPELKKPGETVKISCKASGYTFTNYGMNWVKQAPGKGLKWMGWINTNTGEPTYAEEFKGRFAFSLETSASTAYLQINNLKNEDTATYFCARGSEFGRLDYWGQGASVTVSS
VL: DIQMTQTTSSLSASLGDRVTISCSASQGISNYLNWYQQKPDGTVKLLIYYTSSLHSGVPSRFSGSGSGTDYSLTISNLEPEDIATYYCQQYSKLPYVFGGGTKLEIK
notes: as for B3
B9: in the experiment with (NANP)9 peptide, the binding result is given as “binds”.

B10: hybrid antibody mLC + gHC with heavy chain M39I (antibody, V domains shown)
VH: QIQLVQSGPELKKPGETVKISCKASGYTFTNYGINWVKQAPGKGLKWMGWINTNTGEPTYAEEFKGRFAFSLETSASTAYLQINNLKNEDTATYFCARGSEFGRLDYWGQGASVTVSS
VL: DIQMTQTTSSLSASLGDRVTISCSASQGISNYLNWYQQKPDGTVKLLIFYTSTLYSGVPSRFSGSGSGTDYSLTISNLEPEDIATYYCQQYSRFPYVFGGGTKLEIK
notes: as for B2
In the case of B10, the binding result with (NANP)9 peptide is “binds”.

B11: hybrid antibody mLC + gHC with heavy chain N59I (antibody, V domains shown)
VH: QIQLVQSGPELKKPGETVKISCKASGYTFTNYGMNWVKQAPGKGLKWMGWINTITGEPTYAEEFKGRFAFSLETSASTAYLQINNLKNEDTATYFCARGSEFGRLDYWGQGASVTVSS
VL: DIQMTQTTSSLSASLGDRVTISCSASQGISNYLNWYQQKPDGTVKLLIFYTSTLYSGVPSRFSGSGSGTDYSLTISNLEPEDIATYYCQQYSRFPYVFGGGTKLEIK
notes: as for B2
In the case of B11, the binding result in the experiment with (NANP)9 peptide is “binds”.
